Protein stability index data for 72 sequences are collected here from the supplement of paper PMC10567573.

± gives the standard deviation.

This series in a line: protein stability index of a GFP-peptide fusion (GPS, HEK-293T) (PSI 1-6); higher = more stable.
Where [1] appears, read: treatment: DMSO, c terminus: a fixed tail appended.
Where [2] appears, read: treatment: MLN4924 1 uM, 8 h, c terminus: a fixed tail appended.
Setting [3] is: treatment: DMSO, c terminus: native.
The mark [4] stands for this setting: treatment: MLN4924 1 uM, 8 h, c terminus: native.
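Further: 24-mer peptide tiles fused after GFP, lentivirally expressed, FACS-sorted into six equal bins by GFP/DsRed ratio, decoded by Illumina sequencing, PSI is the read-weighted mean bin number.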

Regarding AAAAAAASAAAATAAFTTAKAAAL [SPAG8], the protein stability index under setting [1] is 2.33 ± 0.26 and the protein stability index under setting [2] worked out at 2.62 ± 0.75.
The like results for AAAQSYPGYLPYSPEPPSLYGALN [IRX6] were, in that order, 2.68 ± 0.077 and 2.87 ± 0.2.
As to AAETASLEEQLQGWGEVMLMADKV [ARL6IP1], the protein stability index is, setting by setting: under setting [1], 4.53 ± 0.082; under setting [2], 4.45 ± 0.19.
For AAFQTILTEIYRIVSQKQMSDRRE [RAB11A], in that order: 2.77 ± 0.42 and 2.52 ± 0.36.
For AALELLPRELFPPLFMAAFDGRHS [PRAME], the protein stability index runs as follows: under setting [1], 2.27 ± 0.38; under setting [2], 2.4 ± 0.18.
Take AALHMVIVAAFTWAFTLFFEVSE [KMT2E]: the protein stability index by setting is: under setting [3], 2.48 ± 0.21; under setting [4], 2.34 ± 0.16.
AAPLPERNSLSAIFNNVMTLCAML [SLC29A1] gave a protein stability index under setting [1] of 2.57 ± 0.14 and a protein stability index under setting [2] of 2.57 ± 0.31.
Take AATPRTNSVISVCSSSNLAGNDDS [DLC1]: the protein stability index runs as follows: under setting [1], 5.08 ± 0.3; under setting [2], 5.17 ± 0.083.
As for AAVKENQMTPTNLAVCLAPSLFHL [DLC1], the protein stability index under setting [1] was found to be 2.37 ± 0.06 and the protein stability index under setting [2] was 2.61 ± 0.33.
With ADISEAEQRTIQAQKESLQNQHHS [APBB1IP], the protein stability index by setting is: under setting [1], 5.2 ± 0.38; under setting [2], 5.23 ± 0.15.
For AEALYQTKFQELQLAAGRHGDDLK [KRT71], in that order: 4.61 ± 0.28 and 4.71 ± 0.13.
With AEEYRLKEHYLTFEKSRYETYIHL [PSD2], the protein stability index under setting [1] came out at 1.93 ± 0.2 and the protein stability index under setting [2] was 2.01 ± 0.46.
For AEKVNQDMCMKVPDDPEHLAARRQ [CRYL1], in that order: 5.27 ± 0.61 and 5.15 ± 0.26.
AFEPEALGNLVEGMDFHRFYFENA [CAMK2D] displayed a protein stability index under setting [1] of 2.86 ± 0.44 and a protein stability index under setting [2] of 2.78 ± 0.54.
The like results for AFHPLFSLTSGACRLDYRRPENRS [TCF25] were, in that order, 2.29 ± 0.41 and 2.24 ± 0.24.
Consider AFLEPDETFIVPDSFLVALDMDDG [SPSB1], for which the protein stability index runs as follows: under setting [1], 3.46 ± 0.25; under setting [2], 3.65 ± 0.48.
For AGGNSSSSAAMQSSCSSTSGGGGG [CCDC6], in that order: 5.08 ± 0.11 and 5.035 ± 0.022.
For AGHCSASPGPAAPTARMPGRLRG, the protein stability index runs as follows: under setting [3], 3 ± 0.6; under setting [4], 2.93 ± 0.73.
Take AGSFSRRLIKRFSFKSKPKANGNP [C2CD2L]: the protein stability index is, setting by setting: under setting [1], 3.19 ± 0.21; under setting [2], 3.55 ± 0.15.
Take AIFWIVFLLLIVFYTAITKKIFKS [P2RY14]: the protein stability index is, setting by setting: under setting [1], 2.42 ± 0.6; under setting [2], 2.27 ± 0.2.
For AKELTAEKRLEGQEEEEDNRDSSM [CHGA], the protein stability index is, setting by setting: under setting [1], 5.67 ± 0.22; under setting [2], 5.61 ± 0.31.
As for AKHRLVPPAQGRVSRRLSPRKVST [TRIM9], the protein stability index is, setting by setting: under setting [1], 4.37 ± 0.23; under setting [2], 4.65 ± 0.12.
For the sequence AKLHDVELHQVAERVEALGQFVMK [GNB5], the protein stability index reads like this: under setting [1], 3.78 ± 0.2; under setting [2], 3.74 ± 0.14.
As to ALEQGGLRAATMSAVEAATCRAKE [PYCR3], the protein stability index reads like this: under setting [1], 4.68 ± 0.3; under setting [2], 4.96 ± 0.14.
In the case of ALKRFVNLVARHPLFSEDVVLKLF [SNX8], the protein stability index amounted to 2.38 ± 0.88 under setting [1] and 2.46 ± 0.1 under setting [2].
The like results for ALRNLPPLRAAHRRFNFDTDRPLL [SMG5] were, in that order, 2.72 ± 0.21 and 2.85 ± 0.45.
The like results for ALSLLELLGFNLTFVFLASLLVLI [CLCN6] were, in that order, 3.23 ± 0.93 and 2.69 ± 0.97.
Regarding ALVQEKIQKRNQRQSGDRRQLPPP [WAS], the protein stability index by setting is: under setting [1], 4.31 ± 0.24; under setting [2], 4.59 ± 0.086.
On to ANSAFAVDLFKQLCEKEPLGNVLF [SERPINB5], for which the protein stability index was 2.08 ± 0.29 under setting [1] and 2.47 ± 0.3 under setting [2].
For APAPAPEEWLDILGNGLLRKKTLV [FKBP8], the protein stability index turned out to be 3.19 ± 0.32 under setting [1] and 3.24 ± 0.27 under setting [2].
Regarding APATGSGTPGPFTKEGGMLAYYEV [CHIT1], the protein stability index by setting is: under setting [1], 2.55 ± 0.25; under setting [2], 2.63 ± 0.16.
For APDGSYFAWSQGHRTVKLVPWSQC [WSB1], in that order: 2.57 ± 0.47 and 2.8 ± 0.42.
With APFPNVSTSLLTSAGNRTHKARTR [ADAMTSL2], the protein stability index was 4.68 ± 0.25 under setting [1] and 4.64 ± 0.29 under setting [2].
The like results for APLLPHITATSLLGTRESDTEVIT [BCL2L13] were, in that order, 4.58 ± 0.26 and 4.47 ± 0.2.
The like results for APLTISRVHAGSKAALAALCPGDL [PDLIM4] were, in that order, 3.62 ± 0.37 and 3.65 ± 0.28.
As for APQNSFSAKLAPHYFHSISYKIEE [KCNK9], the protein stability index stood at 3.21 ± 0.12 under setting [1] and 3.34 ± 0.16 under setting [2].
With APWNYHYHCPGSPDHQVPYGHDYP [TRAF3IP2], the protein stability index was 2.6 ± 0.46 under setting [1] and 3.23 ± 0.3 under setting [2].
AQPQGAPCCSSSPEEPLNGESYES [FEM1A] displayed a protein stability index under setting [1] of 5.41 ± 0.19 and a protein stability index under setting [2] of 5.53 ± 0.2.
The like results for ARGDAVCTACGSVLEDNIIVSEVQ [BRF1] were, in that order, 4.38 ± 0.19 and 4.34 ± 0.077.
For ARGPGPEGGGGGSYFSGQGSDTGA [JUNB], in that order: 5.11 ± 0.27 and 4.91 ± 0.18.
ARIQQSRRQCHAEEDQSQVPEAG [SMIM2] returned a protein stability index under setting [3] of 3.25 ± 0.4 and a protein stability index under setting [4] of 3.29 ± 0.31.
With ARLAADDFRVKYETELAMRQSVEN [KRT18], the protein stability index stood at 4.39 ± 0.19 under setting [1] and 4.44 ± 0.21 under setting [2].
ARVTGELTMTFPAGIVRVFSGTPP [FCHO1] registered a protein stability index under setting [1] of 2.51 ± 0.16 and a protein stability index under setting [2] of 2.43 ± 0.23.
Take ASALRTRMTGGRPPLPPPDDPATL [DYRK1B]: the protein stability index is 4.65 ± 0.13 under setting [1] and 4.87 ± 0.23 under setting [2].
As to ASLHTLLGDPCPMLESPGAPCRSA [HDAC6], the protein stability index reads like this: under setting [1], 3.62 ± 0.23; under setting [2], 3.83 ± 0.27.
Take ASSGDLTCGVCALELGSTEVLLDH [PLAGL1]: the protein stability index reads like this: under setting [1], 2.68 ± 0.4; under setting [2], 2.82 ± 0.49.
The like results for ASSNVFSNFEQTQIQEFKEAFTLM [MYL5] were, in that order, 3.49 ± 0.18 and 3.42 ± 0.27.
For ASTSTPSSTLVRPIRSRRALPPLR [FAM189A2], in that order: 4.16 ± 0.17 and 4.21 ± 0.21.
Turning to ATIFALSTMTSSVQIYNLSQNIQE [ATL3], the protein stability index runs as follows: under setting [1], 3.03 ± 0.76; under setting [2], 3.27 ± 0.71.
In the case of ATKTEPKKLEKYLQKLSALLMTAD [ELOA2], the protein stability index runs as follows: under setting [1], 2.54 ± 0.59; under setting [2], 2.31 ± 0.54.
Regarding ATLCLEFLLQNDANPSIRDKEGYN [ANKRD44], the protein stability index was 2.61 ± 0.26 under setting [1] and 2.73 ± 0.074 under setting [2].
Consider ATTSASDSLKPEQLDIEEEGRPGA [TFE3], for which the protein stability index under setting [1] came out at 5.5 ± 0.23 and the protein stability index under setting [2] was 5.35 ± 0.12.
Turning to AVARSPKRPAWGSRRFEAVGWWAL [POMT2], the protein stability index by setting is: under setting [1], 2.88 ± 0.97; under setting [2], 2.49 ± 0.51.
The like results for AVLRRIQLQPTSIEKEVFPIMAKE [GMPPB] were, in that order, 2.52 ± 0.33 and 2.57 ± 0.36.
AVQAQAGWLQHDFGHLSVFSTSKW [FADS1]: the protein stability index under setting [1] was 2.23 ± 0.18 and the protein stability index under setting [2] was 2.29 ± 0.33.
With AVQHFYNIKLEGKVPMHKLFLEML [ESRRG], the protein stability index by setting is: under setting [1], 2.06 ± 0.42; under setting [2], 2.23 ± 0.22.
Take AVQRFCLIGSLSKHESEYNTTRV [NETO1]: the protein stability index was determined as 2.85 ± 1.1 under setting [3] and 2.48 ± 0.6 under setting [4].
On to AWEPRSESQASRKEEGLPEEEPSH [ZNF8], for which the protein stability index runs as follows: under setting [1], 5.38 ± 0.59; under setting [2], 5.59 ± 0.1.
Regarding AYMGHLDVVALLINHGAEVTCKDK [ANKRD44], the protein stability index reads like this: under setting [1], 2.23 ± 0.39; under setting [2], 2.44 ± 0.19.
For CAGPLEDAVTIPCGHTFCRLCLPA [TRIM15], the protein stability index by setting is: under setting [1], 2.69 ± 0.21; under setting [2], 2.67 ± 0.37.
For CAKMEKDGYGMTPLLSASVTGHTN [FEM1C], in that order: 3.58 ± 0.26 and 3.55 ± 0.11.
For the sequence CAQMLPPNLSPHAPWNYHYHCPGS [TRAF3IP2], the protein stability index is, setting by setting: under setting [1], 2.56 ± 0.49; under setting [2], 2.28 ± 0.29.
CAVMNVVFITILIIALIALSVGQY [CD69]: the protein stability index reads like this: under setting [1], 3.04 ± 0.34; under setting [2], 2.47 ± 0.48.
The like results for CDLADRELVVIIGWAKHIPGFSTL [ESRRG] were, in that order, 2.92 ± 0.76 and 3.05 ± 0.56.
On to CDQYSCALTGPVVDIVTGHARLSD [DHCR7], for which the protein stability index reads like this: under setting [1], 3.57 ± 0.25; under setting [2], 3.71 ± 0.17.
In the case of CFNRSREYQLNDSAAYYLNDLDRI [GNAI1], the protein stability index was 2.51 ± 0.25 under setting [1] and 2.46 ± 0.23 under setting [2].
CFPSTQKPTEPSVPVQPLLPESLA [FBF1]: the protein stability index came out at 4.14 ± 0.23 under setting [1] and 4.16 ± 0.15 under setting [2].
As for CGACLTQLFFFHLFVGVDCFLLTA [OR3A1], the protein stability index runs as follows: under setting [1], 3.07 ± 0.2; under setting [2], 3.02 ± 0.33.
As to CGTKYPVEWAKFCCECGIRRMIL [ZC2HC1A], the protein stability index is, setting by setting: under setting [3], 3.11 ± 0.39; under setting [4], 3.53 ± 0.055.
As for CHEEVYAGSHQYPGRGVYLLKFDN [ACBD3], the protein stability index by setting is: under setting [1], 2 ± 0.64; under setting [2], 2.16 ± 0.8.
The like results for CHHGLVADSLQASMEKDATLNVDR [DLC1] were, in that order, 4.35 ± 0.12 and 4.47 ± 0.25.
Turning to CKGRDHGVLDALHVLEGLFRTDPE [ZSWIM9], the protein stability index came to 2.8 ± 0.05 under setting [1] and 2.81 ± 0.26 under setting [2].
